Laboratory results as given in patent publication US11142752B2, “Pullulanase mutant” (Jiangnan University, priority 2018, dated 2021).
Where “and” joins values, the source holds several entries; their conditions need not be identical. Equal values may be shown once.

System: pullulanase derived from Bacillus subtilis str. 168
Assay: Inhibitory effect of cyclodextrin on pullulanase enzyme activity (DNS method, pullulan substrate)
Type: biochemical
Conditions: for Reduction rate of specific enzyme activity in existence of α-CD / Reduction rate of specific enzyme activity in existence of β-CD / Reduction rate of specific enzyme activity in existence of γ-CD: Bacillus subtilis str. 168 pullulanase, 1% pullulan pH 6.0, 40° C., 30 min; for Reduction rate of specific enzyme activity in existence of α-CD: inhibitor α-CD (0.1 mL of 10 mM cyclodextrin); for Reduction rate of specific enzyme activity in existence of β-CD: inhibitor β-CD (0.1 mL of 10 mM cyclodextrin); for Reduction rate of specific enzyme activity in existence of γ-CD: inhibitor γ-CD (0.1 mL of 10 mM cyclodextrin); for Inhibitory effects of three cyclodextrins on the pullulanase mutant compared with the wild type pullulanase: α-CD, β-CD and γ-CD, comparison of mutant with wild type pure enzyme
Excerpt: 2. Measurement of Enzyme Activity of the Pullulanase:
A 3,5-dinitrosalicylic acid (DNS) method is adopted. The pullulanase catalyzes the hydrolysis of pullulan to produce reducing sugar under certain conditions, 3,5-dinitrosalicylic acid and the reducing sugar are reduced under thermal conditions to produce a brown-red amino complex, the color depth is directly proportional to the amount of the reducing sugar within a certain range, and the measurement can be performed at the wavelength of 540 nm so as to calculate the enzyme activity. Enzyme activity unit definition: the amount of the enzyme that catalyzes the production of the reducing sugar equivalent to 1 μmol of glucose reducing power per minute is defined as one activity unit.
3. Measurement of the Enzyme Activity Comprises the Following Steps:
A. preheating: putting 1 mL of a 1% pullulan solution of which the pH value is 6.0 and 0.1 mL of a buffer solution of which the pH value is 6.0 in a centrifuge tube, and performing thermal insulation for 10 min on a water bath of 40° C.;
B. reaction: adding 0.1 mL (10 U) of an enzyme solution, performing shaking and mixing uniformly, performing accurate timing for 30 min, adding 1.5 mL of DNS for stopping reaction, performing treatment in a boiling water bath for 10 min, and performing instant cooling; and
C. measurement: measuring the light absorption value under the condition of 540 nm, and calculating the activity.
Reduction of the Inhibitory Effect of Enzyme Activity Characterization:
A. preheating: putting 1 mL of the 1% pullulan solution of which the pH value is 6.0 and 0.1 mL of 10 mM cyclodextrin in the centrifuge tube, and performing thermal insulation for 10 min on the water bath of 40° C.;
B. reaction: adding 0.1 mL (10 U) of the enzyme solution, performing shaking and mixing uniformly, performing accurate timing for 30 min, adding 1.5 mL of DNS for stopping reaction, performing treatment in the boiling water bath for 10 min, and performing instant cooling; and […]

[1] = listed as wild type pure enzyme

Molecule	Reduction rate of specific enzyme activity in existence of α-CD [%]	Reduction rate of specific enzyme activity in existence of β-CD [%]	Reduction rate of specific enzyme activity in existence of γ-CD [%]	Inhibitory effects of three cyclodextrins on the pullulanase mutant compared with the wild type pullulanase	Reduction rate of specific enzyme activity in existence of α-CD [1] [%]	Reduction rate of specific enzyme activity in existence of β-CD [1] [%]	Reduction rate of specific enzyme activity in existence of γ-CD [1]
Mutant F476G: Bacillus subtilis str. 168 pullulanase with phenylalanine at position 476 mutated into glycine (protein, UniProt C0SPA0 1-718, looked up, variant F476G) Pullulanase: MVSIRRSFEAYVDDMNIITVLIPAEQKEIMTPPFRLETEITDFPLAVREEYSLEAKYKYVCVSDHPVTFGKIHCVRASSGHKTDLQIGAVIRTAAFDDEFYYDGELGAVYTADHTVFKVWAPAATSAAVKLSHPNKSGRTFQMTRLEKGVYAVTVTGDLHGYEYLFCICNNSEWMETVDQYAKAVTVNGEKGVVLRPDQMKWTAPLKPFSHPVDAVIYETHLRDFSIHENSGMINKGKYLALTETDTQTANGSSSGLAYVKELGVTHVELLPVNDFAGVDEEKPLDAYNWGYNPLHFFAPEGSYASNPHDPQTRKTELKQMINTLHQHGLRVILDVVFNHVYKRENSPFEKTVPGYFFRHDECGMPSNGTGVGNDIASERRMARKFIADCVVYWLEEYNVDGFRFDLLGILDIDTVLYMKEKATKAKPGILLFGEGWDLATPLPHEQKAALANAPRMPGIGFFNDMFRDAVKGNTGHLKATGFALGNGESAQAVMHGIAGSSGWKALAPIVPEPSQSINYVESHDNHTFWDKMSFALPQENDSRKRSRQRLAAAIILLAQGVPFIHSGQEFFRTKQGVENSYQSSDSINQLDWDRRETFKEDVHYIRRLISLRKAHPAFRLRSAADIQRHLECLTLKEHLIAYRLYDLDEVDEWKDIIVIHHASPDSVEWRLPNDIPYRLLCDPSGFQEDPTEIKKTVAVNGIGTVILYLASDLKSFA	10.6	17.1	17.6	significantly lower than that of the wild type pullulanase			
Wild enzyme: wild type pullulanase derived from Bacillus subtilis str. 168 (PDB:2E8Z, NCBI CAB14971.2, SEQ ID NO:2) (protein, listed as Bacillus subtilis) MVSIRRSFEAYVDDMNIITVLIPAEQKEIMTPPFRLETEITDFPLAVREEYSLEAKYKYVCVSDHPVTFGKIHCVRASSGHKTDLQIGAVIRTAAFDDEFYYDGELGAVYTADHTVFKVWAPAATSAAVKLSHPNKSGRTFQMTRLEKGVYAVTVTGDLHGYEYLFCICNNSEWMETVDQYAKAVTVNGEKGVVLRPDQMKWTAPLKPFSHPVDAVIYETHLRDFSIHENSGMINKGKYLALTETDTQTANGSSSGLAYVKELGVTHVELLPVNDFAGVDEEKPLDAYNWGYNPLHFFAPEGSYASNPHDPQTRKTELKQMINTLHQHGLRVILDVVFNHVYKRENSPFEKTVPGYFFRHDECGMPSNGTGVGNDIASERRMARKFIADCVVYWLEEYNVDGFRFDLLGILDIDTVLYMKEKATKAKPGILLFGEGWDLATPLPHEQKAALANAPRMPGIGFFNDMFRDAVKGNTFHLKATGFALGNGESAQAVMHGIAGSSGWKALAPIVPEPSQSINYVESHDNHTFWDKMSFALPQENDSRKRSRQRLAAAIILLAQGVPFIHSGQEFFRTKQGVENSYQSSDSINQLDWDRRETFKEDVHYIRRLISLRKAHPAFRLRSAADIQRHLECLTLKEHLIAYRLYDLDEVDEWKDIIVIHHASPDSVEWRLPNDIPYRLLCDPSGFQEDPTEIKKTVAVNGIGTVILYLASDLKSFA	14.3	42.8	17.1		14.3	42.8	7.1% and 17.1%
Mutant F476D: Bacillus subtilis str. 168 pullulanase with phenylalanine at position 476 mutated into aspartic acid (protein, UniProt C0SPA0 1-718, looked up, variant F476D) Pullulanase: MVSIRRSFEAYVDDMNIITVLIPAEQKEIMTPPFRLETEITDFPLAVREEYSLEAKYKYVCVSDHPVTFGKIHCVRASSGHKTDLQIGAVIRTAAFDDEFYYDGELGAVYTADHTVFKVWAPAATSAAVKLSHPNKSGRTFQMTRLEKGVYAVTVTGDLHGYEYLFCICNNSEWMETVDQYAKAVTVNGEKGVVLRPDQMKWTAPLKPFSHPVDAVIYETHLRDFSIHENSGMINKGKYLALTETDTQTANGSSSGLAYVKELGVTHVELLPVNDFAGVDEEKPLDAYNWGYNPLHFFAPEGSYASNPHDPQTRKTELKQMINTLHQHGLRVILDVVFNHVYKRENSPFEKTVPGYFFRHDECGMPSNGTGVGNDIASERRMARKFIADCVVYWLEEYNVDGFRFDLLGILDIDTVLYMKEKATKAKPGILLFGEGWDLATPLPHEQKAALANAPRMPGIGFFNDMFRDAVKGNTDHLKATGFALGNGESAQAVMHGIAGSSGWKALAPIVPEPSQSINYVESHDNHTFWDKMSFALPQENDSRKRSRQRLAAAIILLAQGVPFIHSGQEFFRTKQGVENSYQSSDSINQLDWDRRETFKEDVHYIRRLISLRKAHPAFRLRSAADIQRHLECLTLKEHLIAYRLYDLDEVDEWKDIIVIHHASPDSVEWRLPNDIPYRLLCDPSGFQEDPTEIKKTVAVNGIGTVILYLASDLKSFA	5.6	11.1	11.0	significantly lower than that of the wild type pullulanase			
Mutant F476I: Bacillus subtilis str. 168 pullulanase mutated at position 476 (F to I) (protein, UniProt C0SPA0 1-718, looked up, variant F476I) Pullulanase: MVSIRRSFEAYVDDMNIITVLIPAEQKEIMTPPFRLETEITDFPLAVREEYSLEAKYKYVCVSDHPVTFGKIHCVRASSGHKTDLQIGAVIRTAAFDDEFYYDGELGAVYTADHTVFKVWAPAATSAAVKLSHPNKSGRTFQMTRLEKGVYAVTVTGDLHGYEYLFCICNNSEWMETVDQYAKAVTVNGEKGVVLRPDQMKWTAPLKPFSHPVDAVIYETHLRDFSIHENSGMINKGKYLALTETDTQTANGSSSGLAYVKELGVTHVELLPVNDFAGVDEEKPLDAYNWGYNPLHFFAPEGSYASNPHDPQTRKTELKQMINTLHQHGLRVILDVVFNHVYKRENSPFEKTVPGYFFRHDECGMPSNGTGVGNDIASERRMARKFIADCVVYWLEEYNVDGFRFDLLGILDIDTVLYMKEKATKAKPGILLFGEGWDLATPLPHEQKAALANAPRMPGIGFFNDMFRDAVKGNTIHLKATGFALGNGESAQAVMHGIAGSSGWKALAPIVPEPSQSINYVESHDNHTFWDKMSFALPQENDSRKRSRQRLAAAIILLAQGVPFIHSGQEFFRTKQGVENSYQSSDSINQLDWDRRETFKEDVHYIRRLISLRKAHPAFRLRSAADIQRHLECLTLKEHLIAYRLYDLDEVDEWKDIIVIHHASPDSVEWRLPNDIPYRLLCDPSGFQEDPTEIKKTVAVNGIGTVILYLASDLKSFA	8.2	21.7	15.2				
Mutant F476M: Bacillus subtilis str. 168 pullulanase mutated at position 476 (F to M) (protein, UniProt C0SPA0 1-718, looked up, variant F476M) Pullulanase: MVSIRRSFEAYVDDMNIITVLIPAEQKEIMTPPFRLETEITDFPLAVREEYSLEAKYKYVCVSDHPVTFGKIHCVRASSGHKTDLQIGAVIRTAAFDDEFYYDGELGAVYTADHTVFKVWAPAATSAAVKLSHPNKSGRTFQMTRLEKGVYAVTVTGDLHGYEYLFCICNNSEWMETVDQYAKAVTVNGEKGVVLRPDQMKWTAPLKPFSHPVDAVIYETHLRDFSIHENSGMINKGKYLALTETDTQTANGSSSGLAYVKELGVTHVELLPVNDFAGVDEEKPLDAYNWGYNPLHFFAPEGSYASNPHDPQTRKTELKQMINTLHQHGLRVILDVVFNHVYKRENSPFEKTVPGYFFRHDECGMPSNGTGVGNDIASERRMARKFIADCVVYWLEEYNVDGFRFDLLGILDIDTVLYMKEKATKAKPGILLFGEGWDLATPLPHEQKAALANAPRMPGIGFFNDMFRDAVKGNTMHLKATGFALGNGESAQAVMHGIAGSSGWKALAPIVPEPSQSINYVESHDNHTFWDKMSFALPQENDSRKRSRQRLAAAIILLAQGVPFIHSGQEFFRTKQGVENSYQSSDSINQLDWDRRETFKEDVHYIRRLISLRKAHPAFRLRSAADIQRHLECLTLKEHLIAYRLYDLDEVDEWKDIIVIHHASPDSVEWRLPNDIPYRLLCDPSGFQEDPTEIKKTVAVNGIGTVILYLASDLKSFA	6.5	20.6	16.1				
